# Key:
# [1] = target: T1, cynomolgus CD3 on HSC-F cells (cynomolgus, UniProt Q95LI5 22-198); assay: flow cytometry, yeast-produced IgG 100 nM on HSC-F cells, pH 6.0
# T1 construct: whole, on cells; also called Cyno HSC-F; cynomolgus HSC-F cells
# Experimental: (§1) Anti-CD3 antibodies Antibody Nos. 1-13 were produced as aglycosylated IgGs comprising a IgG1 Fc region in yeast cells. Binding to human or cynomolgus CD3-expressing cells (human CD3+ Jurkat cells or cynomolgus HSC-F cells, respectively) at pH 7.4 and pH 6.0 were measured by fluorescence-activated single cell sorting (FACS). Normalized cell binding (NCB) values were calculated based on median fluorescence intensity (MFI) values, CD3 negative Jurkat cells were used as a negative control.
# (§2) Cell binding assay, CD3+ and CD3− human Jurkat cells (ATCC) and cynomolgus HSC-F cells (NIH) were thawed and washed with cold PBSF buffer, pH 7.4 (PBS+0.1% BSA, pH 7.4). About 200,000 cells were aliquoted per well of a 96-well plate (FACS Assay Plate VWR BD 353263) and pelleted by centrifugation (5 minutes at 500×g). The cells were washed with either PBSF pH 7.4 or PBSF pH 6.0 (PBS+0.1% BSA, pH 6.0), and then resuspended in 100 μl in either PBSF pH 7.4 or PBSF pH 6.0 with IgG antibody (100 nM) produced in yeast as described above. The mixture (cells+antibody) was incubated for 20 minutes on ice, then washed twice with either PBSF pH 7.4 or PBSF pH 6.0. Cells were resuspended in 50 μl of propidium iodide (Roche; 1:500 dilution) and anti-human IgG-RPE (Southern Biotech; 1:100 dilution) prepared in either PBSF pH 7.4 or PBSF pH 6.0, then incubated for 20 minutes on ice in the dark before cells were washed twice with either PBSF pH 7.4 or PBSF pH 6.0. Binding was analyzed on FACS Canto 11.
# [2] = target: T1, cynomolgus CD3 on HSC-F cells; assay: flow cytometry, yeast-produced IgG 100 nM on HSC-F cells, pH 7.4
# Experimental: as §1, §2
# [3] = target: T2, human CD3 on CD3+ Jurkat cells (human, UniProt P07766 23-207); assay: flow cytometry, yeast-produced IgG 100 nM on CD3+ Jurkat cells, pH 6.0
# T2 construct: whole, on cells; The whole CD3 complex stands on the cells; also called Human CD3 Jurkat; human CD3+ Jurkat cells
# T2 sequence (P07766 23-207): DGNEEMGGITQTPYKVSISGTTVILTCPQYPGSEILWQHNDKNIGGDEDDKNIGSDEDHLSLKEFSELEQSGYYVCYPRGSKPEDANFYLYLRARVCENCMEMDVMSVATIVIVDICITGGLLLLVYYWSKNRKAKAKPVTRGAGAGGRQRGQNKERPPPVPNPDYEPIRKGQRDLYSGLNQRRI
# Experimental: as §1, §2
# [4] = target: T2, human CD3 on CD3+ Jurkat cells; assay: flow cytometry, yeast-produced IgG 100 nM on CD3+ Jurkat cells, pH 7.4
# Experimental: as §1, §2
# [5] = target: T3, cynomolgus CD3εδ-Fc heterodimer (Cy CD3ε Fc / CD3δ Fc-HIS) (cynomolgus, UniProt Q95LI8 22-100); assay: BLI (Octet), CHO-produced IgG on AHC sensor, CD3εδ-Fc 100 nM in solution, pH 6.0
# T3 construct: range 22-100; Produced in HEK 293 cells; also called Cy CD3εδ Fc heterodimer; not shown: Fc-HIS part of CD3δ Fc-HIS
# T3 sequence (chain, as listed by the source mutant, form in doubt, chain 1 of 2): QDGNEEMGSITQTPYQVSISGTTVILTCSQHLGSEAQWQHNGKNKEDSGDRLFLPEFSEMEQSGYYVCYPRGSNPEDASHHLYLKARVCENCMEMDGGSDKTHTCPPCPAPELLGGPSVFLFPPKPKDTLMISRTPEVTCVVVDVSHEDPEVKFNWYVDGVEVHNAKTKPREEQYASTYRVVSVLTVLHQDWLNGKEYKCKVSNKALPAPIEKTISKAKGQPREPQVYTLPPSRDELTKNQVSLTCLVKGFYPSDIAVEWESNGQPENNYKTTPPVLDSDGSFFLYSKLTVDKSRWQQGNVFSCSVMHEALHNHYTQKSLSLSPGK
# T3 sequence (Q95LI8 22-100, stated change not applied, form in doubt, chain 2 of 2): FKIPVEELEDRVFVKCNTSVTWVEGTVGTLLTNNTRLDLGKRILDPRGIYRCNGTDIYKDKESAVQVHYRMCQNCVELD
# Experimental: (§3) Anti-CD3 antibodies Antibody Nos. 1-13 were produced as human IgG1 antibodies in yeast or CHO cells. IgGs produced in yeast were aglycosylated, CHO) produced IgGs had standard CH2 glycosylation. Binding affinity to human or cynomolgus CD3εδ-Fc at pH 7.4 and pH 6.0 was measured via biolayer interferometry (BLI) using the ForteBio OCTET® HTX system and analyzed using the ForteBio software.
# (§4) Kinetics were analyzed using the 1:1 binding model.
# [6] = target: T4, human CD3εδ-Fc heterodimer (Hu CD3ε Fc / CD3δ Fc-HIS) (human, UniProt P04234 22-100); assay: BLI (Octet), yeast-produced IgG on AHC sensor, CD3εδ-Fc 100 nM in solution, pH 6.0
# T4 construct: range 22-100; Produced in HEK 293 cells with a heterologous signal peptide; heterodimer purified by Ni Sepharose and Mono Q; also called Hu CD3εδ Fc heterodimer; CD3εδ Fc-HIS heterodimer; not shown: Fc-HIS part of CD3δ Fc-HIS
# T4 sequence (chain, as listed by the source mutant, form in doubt, chain 1 of 2): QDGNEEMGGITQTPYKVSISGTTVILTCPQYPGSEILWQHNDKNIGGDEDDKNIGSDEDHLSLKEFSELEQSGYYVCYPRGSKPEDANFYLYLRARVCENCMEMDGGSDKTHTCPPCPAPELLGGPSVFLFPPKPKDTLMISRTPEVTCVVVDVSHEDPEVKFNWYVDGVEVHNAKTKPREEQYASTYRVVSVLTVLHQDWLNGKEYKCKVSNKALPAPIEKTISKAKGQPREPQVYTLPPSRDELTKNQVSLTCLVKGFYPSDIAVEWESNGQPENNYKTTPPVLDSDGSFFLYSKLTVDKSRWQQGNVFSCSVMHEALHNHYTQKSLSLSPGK
# T4 sequence (P04234 22-100, stated change not applied, form in doubt, chain 2 of 2): as the sequence (Q95LI8 22-100, stated change not applied, form in doubt, chain 2 of 2) above, with V5I, K15N, V20I, T32S, N33D, N34I, A64T, N74S counted along it
# Experimental: as §3, §4
# [7] = target: T3, cynomolgus CD3εδ-Fc heterodimer (Cy …); assay: as above
# Experimental: as §3, §4
# [8] = target: T4, human CD3εδ-Fc heterodimer (Hu CD3ε Fc …); assay: BLI (Octet), yeast-produced IgG on AHC sensor, CD3εδ-Fc 100 nM in solution, pH 7.4
# Experimental: as §3, §4
# [9] = target: T3, cynomolgus CD3εδ-Fc heterodimer (Cy …); assay: as above
# Experimental: as §3, §4
# [10] = target: T4, human CD3εδ-Fc heterodimer (Hu CD3ε Fc …); assay: SPR (Biacore 8K), CHO-produced Fab, monovalent, pH 6.0
# Experimental: (§5) Anti-CD3 antibodies (Antibody Nos. 1-13) were produced as human IgG1 antibodies in yeast or Chinese hamster ovary (CHO) cells, and Fab fragments were generated from the IgG1 antibodies by papain digestion and purified IgGs produced in yeast were aglycosylated. CHO produced IgGs had standard CH2 glycosylation. […] Monovalent binding affinity to human or cynomolgus CD3εδ-Fc at pH 7.4 and pH 6.0 were measured via surface plasmon resonance (SPR) using the BIACORE® 8K (Cytiva, previously GE Healthcare Life Sciences) system and analyzed using BIACORE® Evaluation Software.
# (§6) BIACORE® KD measurements (surface plasmon resonance; SPR). BIACORE® affinity measurements were performed generally as previously described. Briefly, human CD3εδ-Fc heterodimer produced as described above was immobilized to a NiNTA sensor chip in a BIACORE® 8K (Cytiva, previously GE Healthcare Life Sciences) to a response level of ˜500 RUs. […] The sensor chip was doubly regenerated between cycles using 0.35 M EDTA and 0.1 M NaOH. The resulting data were double reference subtracted and fit to a 1:1 binding model using BIACORE® Evaluation Software.
# [11] = target: T3, cynomolgus CD3εδ-Fc heterodimer (Cy …); assay: as above
# Experimental: as §5, §6
# [12] = target: T4, human CD3εδ-Fc heterodimer (Hu CD3ε Fc …); assay: SPR (Biacore 8K), yeast-produced Fab, monovalent, pH 6.0
# Experimental: as §5, §6
# [13] = target: T4, human CD3εδ-Fc heterodimer (Hu CD3ε Fc …); assay: BLI (Octet), CD3εδ-Fc on AHC sensor, CHO-derived Fab 100 nM in solution, pH 6.0
# [14] = target: T4, human CD3εδ-Fc heterodimer (Hu CD3ε Fc …); assay: SPR (Biacore 8K), yeast-produced Fab, monovalent, pH 7.4
# Experimental: as §5, §6
# T1 sequence (Q95LI5 22-198): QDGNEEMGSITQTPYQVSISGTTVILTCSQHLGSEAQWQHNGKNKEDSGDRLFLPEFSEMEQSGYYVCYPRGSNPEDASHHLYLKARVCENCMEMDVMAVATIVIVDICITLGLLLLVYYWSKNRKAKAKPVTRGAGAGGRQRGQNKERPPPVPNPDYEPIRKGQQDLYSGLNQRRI
Binder,NCB [1],NCB [2],NCB [3],NCB [4],Kd [5],Kd [6],Kd [7],Kd [8],Kd [9],Kd [10],Kd [11],Kd [12],Kd [13],Kd [14]
"ADI-48587 (Antibody No. 2), human IgG1 (antibody, V domains shown, Tested as human IgG1 (yeast-produced aglycosylated, or CHO-produced); also called Ab No. 2; parent pH-dependent antibody) VH: QVQLVQSGAEVKKPGASVKVSCKASGFNIKDYYMHWVRQAPGQRLEWMGWIDLENANTIYDAKFQGRVTITRDTSASTAYMELSSLRSEDTAVYYCARDHYHRYFYDVWGQGTLVTVSS VL: DIVMTQSPDSLAVSLGERATINCKSSQSLLNARTGHNYLAWYQQKPGQPPKLLIYWASTRESGVPDRFSGSGSGTDFTLTISSLQAEDVAVYYCKQSHSHRTFGGGTKVEIK",437,0,149,0,451 nM,9.33 nM,–,–,–,–,–,–,–,–
"ADI-74965 (Antibody No. 3), human IgG1 (antibody, V domains shown, Tested as human IgG1 (yeast-produced aglycosylated, or CHO-produced)) VH: QVQLVQSGAEVKKPGASVKVSCKASGFNIKDYYMHWVRQAPGQRLEWMGWIDLENANTIYDAKFQGRVTITRDTSASTAYMELSSLRSEDTAVYYCARDAYHRYFYDVWGQGTLVTVSS VL: DIVMTQSPDSLAVSLGERATINCKSSQSLLNARTGHNYLAWYQQKPGQPPKLLIYWASTRESGVPDRFSGSGSGTDFTLTISSLQAEDVAVYYCKQSHSHRTFGGGTKVEIK",551,74,181,39,33.5 nM,6.68 nM,6.56 nM,13.7 nM,21.8 nM,–,–,–,–,–
"ADI-74966 (Antibody No. 4), human IgG1 (antibody, V domains shown, Tested as human IgG1 (yeast-produced aglycosylated, or CHO-produced)) VH: QVQLVQSGAEVKKPGASVKVSCKASGFNIKDYYMHWVRQAPGQRLEWMGWIDLENANTIYDAKFQGRVTITRDTSASTAYMELSSLRSEDTAVYYCARDHYHRYFYDVWGQGTLVTVSS VL: DIVMTQSPDSLAVSLGERATINCKSSQSLLNARTGHNYLAWYQQKPGQPPKLLIYWASTRESGVPDRFSGSGSGTDFTLTISSLQAEDVAVYYCKQSYSHRTFGGGTKVEIK",378,0,131,0,209 nM,6.95 nM,9.71 nM,–,47.6 nM,–,–,–,–,–
"ADI-74967 (Antibody No. 5), human IgG1 (antibody, V domains shown, Tested as human IgG1 (yeast-produced aglycosylated, or CHO-produced)) VH: QVQLVQSGAEVKKPGASVKVSCKASGFNIKDYYMHWVRQAPGQRLEWMGWIDLENANTIYDAKFQGRVTITRDTSASTAYMELSSLRSEDTAVYYCARDHYHRYFYDVWGQGTLVTVSS VL: GIVMTQSPDSLAVSLGERATINCKSSQSLLNARTGKNYLAWYQQKPGQPPKLLIYWASTRESGVPDRFSGSGSGTDFTLTISSLQAEDVAVYYCKQSHSHRTFGGGTKVEIK",512,81,185,34,37 nM,5.94 nM,7.38 nM,14.5 nM,21.9 nM,–,–,–,–,–
"ADI-74968 (Antibody No. 6), human IgG1 (antibody, V domains shown, Tested as human IgG1 (yeast-produced aglycosylated, or CHO-produced)) VH: QVQLVQSGAEVKKPGASVKVSCKASGFNIKDYYMHWVRQAPGQRLEWMGWIDLENANTIYDAKFQGRVTITRDTSASTAYMELSSLRSEDTAVYYCARDAYHRYFYDVWGQGTLVTVSS VL: DIVMTQSPDSLAVSLGERATINCKSSQSLLNARTGHNYLAWYQQKPGQPPKLLIYWASTRESGVPDRFSGSGSGTDFTLTISSLQAEDVAVYYCKQSYSHRTFGGGTKVEIK",548,106,197,62,17 nM,5.23 nM,5.26 nM,13 nM,20.5 nM,–,–,–,–,–
"Fab of ADI-74966 (Antibody No. 4) (Fab, V domains shown, Fab made by papain digestion of the human IgG1 (yeast- or CHO-produced); also called Antibody No. 4 Fab; ADI-74966 Fab) VH: QVQLVQSGAEVKKPGASVKVSCKASGFNIKDYYMHWVRQAPGQRLEWMGWIDLENANTIYDAKFQGRVTITRDTSASTAYMELSSLRSEDTAVYYCARDHYHRYFYDVWGQGTLVTVSS VL: DIVMTQSPDSLAVSLGERATINCKSSQSLLNARTGHNYLAWYQQKPGQPPKLLIYWASTRESGVPDRFSGSGSGTDFTLTISSLQAEDVAVYYCKQSYSHRTFGGGTKVEIK",–,–,–,–,–,–,–,–,–,19.5 nM,26.1 nM,16.3 nM,36.7 nM,–
"Fab of ADI-79845 (Antibody No. 11) (Fab, V domains shown, Fab made by papain digestion of the yeast-produced human IgG1; also called Antibody No. 11 Fab; ADI-79845 Fab) VH: QVQLVQSGAEVKKPGASVKVSCKASGFNIKDYYMHWVRQAPGQRLEWMGWIDLENANTIYDAKFQGRVTITRDTSASTAYMELSSLRSEDTAVYYCARDAYGRYFYDVWGQGTLVTVSS VL: DIVMTQSPDSLAVSLGERATINCKSSQSLLNARTGKNYLAWYQQKPGQPPKLLIYWASTRESGVPDRFSGSGSGTDFTLTISSLQAEDVAVYYCKQSYSHRTFGGGTKVEIK",–,–,–,–,–,–,–,–,–,–,–,1.96 nM,–,8.5 nM
"Fab of ADI-79848 (Antibody No. 9) (Fab, V domains shown, Fab made by papain digestion of the yeast-produced human IgG1; also called Antibody No. 9 Fab; ADI-79848 Fab) VH: QVQLVQSGAEVKKPGASVKVSCKASGFNIKDYYMHWVRQAPGQRLEWMGWIDLENANTIYDAKFQGRVTITRDTSASTAYMELSSLRSEDTAVYYCARDAYGRYFYDVWGQGTLVTVSS VL: DIVMTQSPDSLAVSLGERATINCKSSQSLLNARTGHNYLAWYQQKPGQPPKLLIYWASTRESGVPDRFSGSGSGTDFTLTISSLQAEDVAVYYCKQSYSRRTFGGGTKVEIK",–,–,–,–,–,–,–,–,–,–,–,5.76 nM,–,33.4 nM

# Reference: patent US20260152557A1 (Adimab, published 2026)
